The values below come from article PMC2615213, “Serum Activity of Platelet-Activating Factor Acetylhydrolase Is a Potential Clinical Marker for Leptospirosis Pulmonary Hemorrhage” (PLoS ONE, 2009).

The data set concerns CCCCCCCCCCCCCC(=O)OC[C@H](COP(=O)([O-])OCC[N+](C)(C)C)OC(=O)CCC(=O)Oc1ccc([N+](=O)[O-])cc1. Description: purified protein. The conditions noted are these: chromogenic substrate; mean of duplicate experiments.

What is called Km is the concentration of substrate that gives half-maximal velocity. The term kcat denotes the number of substrate molecules converted per active site and unit of time at saturation. A word on the kcat/Km: it is the second-order rate constant that governs catalysis at low substrate concentration. In the case of “rL-PAF-AH (recombinant His-tag-L-PAF-AH, LA2144) (Leptospira interrogans serovar Lai str. 56601)”, the Km worked out at 610 µM, the turnover number (kcat) was 6.61 s⁻¹ and the kcat/Km is 10800 M⁻¹ s⁻¹.
